{
  "source": "paper PMC5291256",
  "about": "(Nucleic Acids Research, 2016)",
  "binders": {"B1": {"name": "mouse SWI5 (natural protein, UniProt Q8K3D3 1-89, looked up)", "chain": "MIDENNDVSEEALSSDIKKLKEKHDMLDKEISQLIAEGYRVIELEKHISLLHEYNDIKDVSQMLLGKLAVTRGVTTKELYPDFDLNLND"}},
  "molecular_target": "T1, SFR1^dN202 mutant protein (mouse, UniProt Q8BP27 203-319)",
  "T1 sequence (looked up)": "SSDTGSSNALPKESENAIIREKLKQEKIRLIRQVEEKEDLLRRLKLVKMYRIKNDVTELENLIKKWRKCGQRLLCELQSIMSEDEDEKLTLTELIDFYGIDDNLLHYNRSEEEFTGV",
  "assay": "AUC",
  "data": [
    {"binder": "B1", "values": [
      {"measurement": "stoichiometry N", "result": 1}
    ]}
  ]
}
